Laboratory results from patent US7109303.

What was measured:
[1] = molecular target: murine p55 receptor (on mouse L-M cells) (murine) (UniProt P25118); test: cell-based or functional assay
[2] = molecular target: TNF receptors (on L-M mouse fibroblasts); test: cell-based or functional assay

UniProt P25118, sequence (P25118 30-454): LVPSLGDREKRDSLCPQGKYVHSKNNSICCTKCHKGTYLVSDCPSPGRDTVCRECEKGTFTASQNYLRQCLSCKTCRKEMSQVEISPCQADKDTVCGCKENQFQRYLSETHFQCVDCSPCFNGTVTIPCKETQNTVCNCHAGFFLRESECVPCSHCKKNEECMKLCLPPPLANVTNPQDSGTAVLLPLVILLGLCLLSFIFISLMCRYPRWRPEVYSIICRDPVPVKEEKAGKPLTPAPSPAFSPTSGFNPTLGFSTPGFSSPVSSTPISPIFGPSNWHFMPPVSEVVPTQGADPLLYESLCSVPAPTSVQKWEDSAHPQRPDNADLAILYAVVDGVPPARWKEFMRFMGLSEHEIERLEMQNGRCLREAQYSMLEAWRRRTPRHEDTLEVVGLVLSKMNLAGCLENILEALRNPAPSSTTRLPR

Substance | in vitro cytolytic activity on mouse L-M cells [1] [units/mg] | in vitro cytotoxic activity, standard cytolytic assay with L-M cells [2] [units/mg]
human NGR-TNF (CNGRCG-TNF1-157), refolded (from UniProt P01375 1-233) | 5.09e+07 | 
human NGR-TNF (CNGRCG-TNF1-157), non-refolded (from UniProt P01375 1-233) | 6.11e+07 | 
murine NGR-TNF (Cys-Asn-Gly-Arg-Cys-Gly-TNF1-156) (from UniProt P06804 80-235) |  | 1.8e+08
